Experimental data from patent US20180057595A1 (CELLDEX THERAPEUTICS, published 2018).

Key:
[1] = target: T1, human MET, cell-surface expressed (human, UniProt P08581 25-1390); assay: FACS competition on A549 cells; competitor Ab237C
T1 construct: whole, on cells; Used for all assays on cells that carry wild-type human MET; the cell line is named under assay or readout; also called c-Met; hMET
Procedure: The binding of anti-MET antibodies to cell surface MET was analyzed by competition FACS analysis using A549 NSCLC cells (ATCC cat. no. CCL-185). […] A total of 3×10⁵ A549 NSCLC cells were added per dilution of antibody and incubated on ice for 1 hour. Cells were washed and a 1:100 dilution of PE-labeled goat anti-rat IgG antibody (BioLegend cat. no. 405406) in FACS buffer was added before incubation on ice for 1 hour. […] The geometric mean fluorescence intensity was plotted against antibody concentration. The IC₅₀ of each of the test antibodies was calculated relative to the IC₅₀ of the reference antibody.

[2] = target: T2, human MET-ECD with a His tag (MET-ECD-His) (human, UniProt P08581 25-932); assay: competition ELISA on immobilised MET-ECD; competitor Ab237C
T2 construct: The ELISA sections speak of MET-ECD, MET-ECD-His or His-tagged MET extracellular domain; also called hu-MET-ECD; human cMET ECD
T2 sequence (P08581 other isoform, or with tags, fused parts or gaps): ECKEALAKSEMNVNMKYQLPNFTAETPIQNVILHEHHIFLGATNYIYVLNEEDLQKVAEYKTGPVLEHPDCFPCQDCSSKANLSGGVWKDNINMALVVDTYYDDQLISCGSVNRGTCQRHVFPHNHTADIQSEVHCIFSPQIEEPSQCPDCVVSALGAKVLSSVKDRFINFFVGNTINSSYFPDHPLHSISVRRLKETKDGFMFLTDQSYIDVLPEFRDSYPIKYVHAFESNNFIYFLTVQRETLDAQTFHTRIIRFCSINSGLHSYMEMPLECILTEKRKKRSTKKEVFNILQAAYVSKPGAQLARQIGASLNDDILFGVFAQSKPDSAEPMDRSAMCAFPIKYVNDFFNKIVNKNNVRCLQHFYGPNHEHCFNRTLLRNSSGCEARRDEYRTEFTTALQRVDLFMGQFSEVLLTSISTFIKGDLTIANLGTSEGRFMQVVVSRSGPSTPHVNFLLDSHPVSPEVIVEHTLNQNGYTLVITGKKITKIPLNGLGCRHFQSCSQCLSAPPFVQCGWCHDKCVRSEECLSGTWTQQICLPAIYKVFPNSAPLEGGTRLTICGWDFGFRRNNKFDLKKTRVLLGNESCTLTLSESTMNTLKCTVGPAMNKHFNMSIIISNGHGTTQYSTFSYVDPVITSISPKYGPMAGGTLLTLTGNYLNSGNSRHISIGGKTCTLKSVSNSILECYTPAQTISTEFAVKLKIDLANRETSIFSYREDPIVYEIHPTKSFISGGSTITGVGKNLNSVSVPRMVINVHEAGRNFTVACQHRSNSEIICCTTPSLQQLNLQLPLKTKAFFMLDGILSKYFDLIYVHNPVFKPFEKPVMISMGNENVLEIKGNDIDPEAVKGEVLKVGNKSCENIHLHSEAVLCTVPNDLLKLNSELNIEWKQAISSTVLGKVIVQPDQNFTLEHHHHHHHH
Procedure: The binding of anti-MET antibodies to recombinant MET extracellular domain (“MET-ECD”) was analyzed by competition ELISA. […] The reaction was stopped with 3M HCl, absorbance read at 450 nm on a Dynex Technologies MRX TC II plate reader and the binding curves plotted. Binding curves were used to calculate IC₅₀ values for each test antibody normalized to the IC₅₀ of the reference antibody.

T1 sequence (P08581 25-1390): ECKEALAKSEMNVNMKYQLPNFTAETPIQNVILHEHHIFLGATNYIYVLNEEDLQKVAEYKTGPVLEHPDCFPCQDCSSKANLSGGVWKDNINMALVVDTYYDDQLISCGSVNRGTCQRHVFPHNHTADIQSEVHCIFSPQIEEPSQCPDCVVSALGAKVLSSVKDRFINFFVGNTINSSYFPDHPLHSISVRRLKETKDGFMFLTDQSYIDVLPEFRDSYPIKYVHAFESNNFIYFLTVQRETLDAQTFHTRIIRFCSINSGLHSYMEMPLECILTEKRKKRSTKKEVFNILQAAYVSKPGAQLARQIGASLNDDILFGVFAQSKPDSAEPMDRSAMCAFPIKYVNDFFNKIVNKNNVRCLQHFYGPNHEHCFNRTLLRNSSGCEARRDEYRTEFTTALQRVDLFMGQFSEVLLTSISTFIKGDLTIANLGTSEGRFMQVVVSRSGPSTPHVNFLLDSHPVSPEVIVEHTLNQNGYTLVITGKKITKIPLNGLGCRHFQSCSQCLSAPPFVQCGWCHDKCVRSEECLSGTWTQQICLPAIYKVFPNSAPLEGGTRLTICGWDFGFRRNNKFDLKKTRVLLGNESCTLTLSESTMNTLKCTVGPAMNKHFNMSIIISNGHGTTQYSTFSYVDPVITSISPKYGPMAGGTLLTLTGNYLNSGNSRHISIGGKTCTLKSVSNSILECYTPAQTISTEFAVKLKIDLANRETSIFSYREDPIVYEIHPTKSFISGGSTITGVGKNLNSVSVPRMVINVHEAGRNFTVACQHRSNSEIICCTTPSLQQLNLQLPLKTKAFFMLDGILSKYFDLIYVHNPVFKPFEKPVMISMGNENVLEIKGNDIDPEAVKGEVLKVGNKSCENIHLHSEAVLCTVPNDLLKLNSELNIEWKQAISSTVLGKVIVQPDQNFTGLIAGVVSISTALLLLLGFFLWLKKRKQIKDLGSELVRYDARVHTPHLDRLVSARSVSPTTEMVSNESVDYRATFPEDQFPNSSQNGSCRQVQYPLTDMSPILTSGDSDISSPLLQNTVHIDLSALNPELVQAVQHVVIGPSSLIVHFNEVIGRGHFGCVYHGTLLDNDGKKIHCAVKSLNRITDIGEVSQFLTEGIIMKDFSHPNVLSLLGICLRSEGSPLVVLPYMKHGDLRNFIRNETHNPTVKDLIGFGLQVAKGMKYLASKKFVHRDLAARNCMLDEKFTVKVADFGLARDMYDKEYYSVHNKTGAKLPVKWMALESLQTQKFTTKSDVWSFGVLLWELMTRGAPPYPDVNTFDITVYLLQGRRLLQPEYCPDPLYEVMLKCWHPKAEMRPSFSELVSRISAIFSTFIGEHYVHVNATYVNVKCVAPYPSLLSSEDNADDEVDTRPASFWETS

relative IC50 (against Ab237C) [1]: ~1.22 relative to IC50 of Ab237C | IC50 relative to the IC50 of Ab237C [2]: ~0.97 relative to IC50 of Ab237C
B1: Ab241 (antibody, human IgG1, V domains shown)
VH: EVQLVESGGGLVQPGGSLKLSCAASGFTFSDSYMAWVRQAPGKGLEWVASISSDGGGTYYRDSVKGRFTISRDNAKSSLYLQMDSLRTEDTATYYCTTEGIYTTDYYPYCFNYWGQGVMVTVSS
VL: DIQMTQSPSSLSASVGDRVTITCLASADIHSNLAWYQQKPGKAPQLLIYYGNNLNDGVPSRFSGSGSGTDYTLKINSLQSEDVAIYFCQQSYDSPPTFGQGTKLEIKR
notes: Composite human (humanized) antibody, human IgG1, kappa
